Three substances from article PMC7484505 can be followed below.

One experiment deals with hNav1.7^GFP (human) (UniProt Q15858).
Experiment [1] deals with hNav1.7/A1632E^His-StrepII (human) (UniProt Q15858).
The target of another experiment is hNav1.7/A1632E (human) (UniProt Q15858).

As to “hNav1.7/R896Q (from UniProt Q15858-3 1-1977) (natural protein)”, the peak current density (whole-cell patch clamp) of the Nav1.7 stable HEK cell line (untagged hNav1.7/WT) on co-expression of hNav1.7/R896Q, against the stable line alone with hNav1.7^GFP (human) is 31%.
As for “hNav1.7/A1632E^His-StrepII (from UniProt Q15858-3 1-1977) (natural protein)”, the maximal relative persistent current of hNav1.7/A1632E in X. laevis oocytes (TEVC), without against with co-injected difopein cRNA in experiment [1] is -13.6%.
As for “hNav1.7/A1632E (from UniProt Q15858-3 1-1977) (natural protein)”, the maximal relative persistent current of hNav1.7/A1632E in HEK293T cells (patch clamp), without against with co-expressed difopein with hNav1.7/A1632E (human) was determined as 13.2%.
